Key:
Experiment in all cases: split reporter (BiFC, NanoBiT); protein fragment complementation assay (split luciferase): GLuc1-AP μ subunit and GLuc2-HCV protein transfected pairwise into 293T cells; luciferase at 24 h; normalized luminescence ratio (NLR), positive if NLR >25 (>2.2 SD above a random reference set); mutant panels plotted relative to WT; NS2-AP-1B also tested after treatment with compound 7745, 12i, sunitinib or erlotinib
[1] = target: GLuc1-tagged μ subunit of the AP-4 complex (UniProt O00189)
[2] = target: T1, GLuc-tagged T144A mutant AP-1B (μ subunit) (UniProt Q9Y6Q5 1-423, T144A); conditions: partners not purified
T1 construct: μ subunit of adaptor protein complex AP-1B with T144A; also called phosphorylation site mutant AP-1; source: transfected cells (PCA); not shown: GLuc1 luciferase fragment, N-terminal, kept
T1 sequence: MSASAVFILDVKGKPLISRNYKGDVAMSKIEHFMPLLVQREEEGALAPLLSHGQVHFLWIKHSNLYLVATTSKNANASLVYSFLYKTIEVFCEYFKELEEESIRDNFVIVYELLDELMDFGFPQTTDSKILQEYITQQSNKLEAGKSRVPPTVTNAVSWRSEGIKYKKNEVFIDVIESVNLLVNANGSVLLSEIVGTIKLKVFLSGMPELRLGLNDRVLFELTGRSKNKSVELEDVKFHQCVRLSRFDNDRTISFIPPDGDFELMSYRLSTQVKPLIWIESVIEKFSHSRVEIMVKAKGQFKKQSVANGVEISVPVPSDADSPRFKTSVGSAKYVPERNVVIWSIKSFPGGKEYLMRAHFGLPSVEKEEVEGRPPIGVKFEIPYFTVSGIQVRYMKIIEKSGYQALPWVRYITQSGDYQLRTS

[3] = target: T2, GLuc-tagged T144A mutant AP-1A (μ subunit) (UniProt Q9BXS5 1-423, T144A); conditions: partners not purified
T2 construct: μ subunit of adaptor protein complex AP-1A (AP1M1) with T144A; also called phosphorylation site mutant AP-1; source: transfected cells (PCA); not shown: GLuc1 luciferase fragment, N-terminal, kept
T2 sequence: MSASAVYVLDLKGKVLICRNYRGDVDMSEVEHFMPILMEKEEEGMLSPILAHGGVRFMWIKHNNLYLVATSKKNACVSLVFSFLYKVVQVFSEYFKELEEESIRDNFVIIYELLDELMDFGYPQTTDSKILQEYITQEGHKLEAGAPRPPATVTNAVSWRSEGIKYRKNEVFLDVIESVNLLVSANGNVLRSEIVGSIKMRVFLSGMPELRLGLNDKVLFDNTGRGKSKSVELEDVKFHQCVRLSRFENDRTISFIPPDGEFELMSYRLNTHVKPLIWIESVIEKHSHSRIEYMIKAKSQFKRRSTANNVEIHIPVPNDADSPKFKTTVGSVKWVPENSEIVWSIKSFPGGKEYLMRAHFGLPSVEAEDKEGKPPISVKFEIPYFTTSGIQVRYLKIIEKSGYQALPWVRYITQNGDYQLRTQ

Sequence of GLuc1-tagged μ subunit of the AP-4 complex (O00189 whole entry, one chain of several): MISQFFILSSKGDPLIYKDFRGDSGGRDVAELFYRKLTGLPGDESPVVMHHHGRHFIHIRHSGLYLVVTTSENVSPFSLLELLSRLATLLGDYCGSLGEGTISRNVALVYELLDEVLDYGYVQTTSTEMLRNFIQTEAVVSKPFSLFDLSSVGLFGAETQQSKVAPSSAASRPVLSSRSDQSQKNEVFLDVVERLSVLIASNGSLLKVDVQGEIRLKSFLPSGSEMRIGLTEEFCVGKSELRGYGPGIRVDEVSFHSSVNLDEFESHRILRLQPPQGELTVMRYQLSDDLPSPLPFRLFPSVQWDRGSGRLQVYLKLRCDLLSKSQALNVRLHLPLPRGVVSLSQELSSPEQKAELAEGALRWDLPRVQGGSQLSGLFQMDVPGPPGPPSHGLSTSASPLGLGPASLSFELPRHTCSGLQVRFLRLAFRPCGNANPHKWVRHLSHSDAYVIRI

Molecule	fold reduction of binding (NLR) relative to WT NS2 [1] [fold]	fold reduction of binding (NLR) relative to WT AP-1B [2] [fold]	fold reduction of binding (NLR) relative to WT AP-1A [3] [fold]
GLuc-NS2 double mutant (L202A-L217A) (natural protein)	3		
GLuc-NS2 quadruple mutant (L202A-L203A-L216A-L217A) (natural protein)	4		
GLuc2-NS2 (hepatitis C virus nonstructural 2 protein, wild type) (natural protein, cut product of the polyprotein; also called WT NS2; GLuc-NS2; source: 293T, transfected (PCA); Huh7.5, transfected, membrane fraction (co-IP) and knockout cells (PCA); not shown: GLuc2 luciferase fragment, N-terminal, kept) YDASVHGQIGAALLVLITLFTLTPGYKTLLSRFLWWLCYLLTLAEAMVQEWAPPMQVRGGRDGIIWAVAIFCPGVVFDITKWLLAVLGPAYLLKGALTRVPYFVRAHALLRMCTMVRHLAGGRYVQMVLLALGRWTGTYIYDHLTPMSDWAANGLRDLAVAVEPIIFSPMEKKVIVWGAETAACGDILHGLPVSARLGREVLLGPADGYTSKGWSLL		~2	~2
